{"source": "patent US7026292B1", "about": "“Compositions and therapeutic methods using morphogenic proteins and stimulatory factors” (Stryker Corporation, priority 1995, dated 2006)", "key": {"[1]": {"tested_on": "FRC (fetal rat calvarial) cells", "assay": "Alkaline phosphatase (AP) activity assay in FRC cells", "format": "cell-based", "protocol": "A preferred assay for testing potential MPSFs with OP-1 for osteogenic activity is the alkaline phosphatase (AP) enzymatic assay. AP is an osteoblast differentiation marker in primary osteoblastic FRC. (fetal rat calvarial) cells. The OP-1-stimulated AP activity is the result of increased steady-state AP mRNA levels as measured by Northern analysis. The procedure is generally as follows.\nPrimary osteoblast cell cultures were prepared from fetal rat calvaria using published procedures (M. A. Aronow et al., J. Cell Physiol., 143, pp. 213–221 (1990); T. K. McCarthy et al., J. Bone Miner. Res., 3, pp. 401–8 (1988)). Briefly, cells were harvested by sequential collagenase digestions of the calvarium and cells from digestions III to V were pooled. Fetal rat calvaria (FRC) cells were plated in complete medium (MEM, alpha; GIBCO/BRL, Grand Island, N.Y.) containing 10% fetal bovine serum, vitamin C (100 μg/ml), and antibiotics (100 U/ml penicillin, and […]). Cultures were incubated at 37° C. with 95% air/5% CO2 for several days to reach confluence. Cells were then subcultured for experimentations.\nFRC cells were subcultured in 48-well plates (COSTAR, Cambridge, Mass.) in complete MEM medium with 10% fetal bovine serum until confluent in about 4 days. Confluent cells were rinsed with Hank's balanced salt solution (HBSS) and treated with serum-free α-MEM medium (with 0.1% BSA, 100 U/ml penicillin, and […]) containing the appropriate solvent vehicle (50% acetonitrile/0.1% trifluoroacetic acid for OP-1 treatment or 0.1N acetic acid for IGFI treatment) or recombinant human OP-1, or IGFI at the concentrations indicated. Solvent vehicle concentration in the culture medium never exceeded 0.1%. At the end of treatment, cells were lysed and total cellular alkaline phosphatase activity was measured (typically after 48 hours of treatment).\nTotal cellular alkaline phosphatase activity was determined using a commercial assay kit (Sigma, St. Louis, Mo.). Cell lysates were prepared by aspirating the medium from the 48-well plate, rinsing the cells with ice-cold PBS, and lysing the cells with 0.05% Triton X-100 and sonication for 60 sec. Alkaline phosphatase activity in the lysates was measured in 2-amino-2-methyl-1-propanol buffer (pH 10.3) with p-nitrophenyl phosphate as substrate at 37° C. Reactions were performed in 96-well plates for 1–2 h. Following color development, reactions were terminated with 0.5N NaOH. Absorbance of the reaction was measured at 405 nm using a Hewlett Packard Genenchem automatic plate reader. Total protein level in the lysates was measured according to Bradford (M. Bradford, Anal. Biochem., 72, pp. 248–54 (1976)) using bovine serum albumin as a standard. Alkaline phosphatase activity was expressed as nmol p-nitrophenol liberated per microgram of total cellular protein. […]\nAt least four experimental groups were tested: control cells treated with no OP-1 or MPSF; group I cells treated with increasing concentrations of MPSF alone; […]; and group III cells, […] concentrations of the MPSF."}, "[2]": {"assay": "Osteogenic activity of refolded E. coli-expressed constructs incorporated in a matrix", "format": "in vivo", "conditions": "refolded constructs from SDS gel slices incorporated in a matrix; histological examination", "excerpt": "Samples of the various purified constructs and various mixtures of pairs of the constructs refolded together were applied to SDS polyacrylamide gels, separated by electrophoresis, sliced, incorporated in a matrix as disclosed below, and tested for osteogenic activity."}, "[3]": {"conditions": "cited from earlier work"}, "[4]": {"conditions": "200 nM PTH + 200 ng/ml OP-1, 48 hours (FIG. 9)"}}, "note": "Where two headings read alike, the source gives them in different places.", "data": [{"molecule": "PTH: parathyroid hormone, purchased from Sigma (protein, UniProt P01270 32-115, looked up, Parathyroid hormone, parathyroid hormone, purchased from Sigma) Parathyroid hormone: SVSEIQLMHNLGKHLNSMERVEWLRKKLQDVHNFVALGAPLAPRDAGSQRPRKKEDNVLVESHEKSLGEADKADVNVLTKAKSQ", "values": [{"measurement": "Level of AP activity relative to cells treated with OP-1 alone", "setting": "[1]; [4]", "result": "about two-fold"}, {"measurement": "Level of AP activity relative to control cells", "setting": "[1]; [4]", "result": "about five-fold"}, {"measurement": "MPSF function in concert with OP-1 (figure title)", "setting": "[1]; AP activity in FRC cells, OP-1 200 ng/ml (FIGS. 5–10)", "result": "is a MPSF in concert with OP-1"}, {"measurement": "Effect on OP-1-induced stimulation of AP activity", "setting": "[1]; PTH 25 and 100 nM + 200 ng/ml OP-1, 48 hours (FIG. 9)", "result": "no effect"}, {"measurement": "Stimulation of AP activity by PTH alone", "setting": "[1]; PTH 25–200 nM alone, 48 hours (FIG. 9)", "result": "did not stimulate AP activity"}, {"measurement": "Effect of PTH on AP activity induced by the OP-1/IGF-I combination", "setting": "[1]; PTH at least about 50 nM + 200 ng/ml OP-1 + 25 ng/ml IGF-1", "result": "significantly increased"}]}, {"molecule": "COP5: synthetic consensus osteogenic protein, Seq. ID No. 2 (protein) LYVDFSDVGWDDWIVAPPGYQAFYCHGECPFPLADHFNSTNHAVVQTLVNSVNSKIPKACCVPTELSAISMLYLDENEKVVLKYNQEMVVEGCGCR", "values": [{"measurement": "Osteogenic activity", "setting": "[2]", "result": "induce osteogenesis"}]}, {"molecule": "COP7: synthetic consensus osteogenic protein, Seq. ID No. 3 (protein) LYVDFSDVGWNDWIVAPPGYHAFYCHGECPFPLADHLNSTNHAVVQTLVNSVNSKIPKACCVPTELSAISMLYLDENEKVVLKYNQEMVVEGCGCR", "values": [{"measurement": "Osteogenic activity", "setting": "[2]", "result": "induce osteogenesis"}]}, {"molecule": "OP-1: osteogenic protein OP-1 (BMP-7), morphogenic protein of the BMP family; recombinant human OP-1 used in FRC assays (protein, UniProt P18075 293-431, looked up) Bone morphogenetic protein 7: STGSKQRSQNRSKTPKNQEALRMANVAENSSSDQRQACKKHELYVSFRDLGWQDWIIAPEGYAAYYCEGECAFPLNSYMNATNHAIVQTLVHFINPETVPKPCCAPTQLNAISVLYFDDSSNVILKKYRNMVVRACGCH", "values": [{"measurement": "Stimulation of AP activity above vehicle-treated control culture", "setting": "[1]; OP-1 500 ng/ml, 48 hours (FIG. 2)", "result": 1.6, "unit": "fold"}, {"measurement": "Osteogenic activity", "setting": "[3]; deglycosylated protein, about 27 kD", "result": "has osteogenic activity"}, {"measurement": "Osteogenic activity", "setting": "[3]; native 30–35 kD protein in the reduced state", "result": "no detectable osteogenic activity"}]}]}
